# Measured values published in paper PMC6957267 (Molecular cancer therapeutics, 2012).
# Molecular target: Mature human IGF-II (insulin-like growth factor II) (human)
# Test: ELISA
row,EC50,Binder
1,5 nM,"Fab m610.27 (Fab, V domains shown) VH: QVQLVQSGAEVKKPGASVKVSCKASGYTFTSYYMHWVRQAPGQGLEWMGIINPSGGSTSYAQKFQGRVTMTRDTSTSTVYMELSRLRSDDTAVYYCARDVQWLAYGMDVWGQGTTVTVSS VL: DIQMTQSPSSLSASVGDRVTITCRASQSISSYLNWYQQKPGRAPDLLINAASSLQSGVPSRFSGSGSGTDFTLTISSLQPEDFATYFCQQSYSLPFTFGGGTKVEIK"
2,20 nM,"m610 (human mAb to IGF-II), Fab (Fab, V domains shown) VH: QVQLVQSGAEVKKPGASVKVSCKASGYTFTSYYMHWVRQAPGQGLEWMGIINPSGGSTSYAQKFQGRVTMTRDTSTSTVYMELSRLRSDDTAVYYCARDVQWLAYGMDVWGQGTTVTVSS VL: not shown"
